Ends that are not written are not given here.
T1: CRF2R
T1 sequence (Q13324 whole entry, species assumed, looked up): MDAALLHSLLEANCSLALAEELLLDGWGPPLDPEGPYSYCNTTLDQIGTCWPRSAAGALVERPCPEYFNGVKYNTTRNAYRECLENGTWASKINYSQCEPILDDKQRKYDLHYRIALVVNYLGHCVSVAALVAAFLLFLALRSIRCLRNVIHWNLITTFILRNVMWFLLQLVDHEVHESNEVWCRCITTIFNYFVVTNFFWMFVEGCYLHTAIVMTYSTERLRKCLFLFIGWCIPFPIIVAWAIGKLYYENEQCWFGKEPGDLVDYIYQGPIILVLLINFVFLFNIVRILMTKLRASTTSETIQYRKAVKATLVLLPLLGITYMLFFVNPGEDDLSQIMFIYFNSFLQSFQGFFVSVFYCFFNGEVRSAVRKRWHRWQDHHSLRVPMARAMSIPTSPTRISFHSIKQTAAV

T2: corticotropin releasing factor 2 receptor
T2 sequence (Q13324 whole entry, species assumed, looked up): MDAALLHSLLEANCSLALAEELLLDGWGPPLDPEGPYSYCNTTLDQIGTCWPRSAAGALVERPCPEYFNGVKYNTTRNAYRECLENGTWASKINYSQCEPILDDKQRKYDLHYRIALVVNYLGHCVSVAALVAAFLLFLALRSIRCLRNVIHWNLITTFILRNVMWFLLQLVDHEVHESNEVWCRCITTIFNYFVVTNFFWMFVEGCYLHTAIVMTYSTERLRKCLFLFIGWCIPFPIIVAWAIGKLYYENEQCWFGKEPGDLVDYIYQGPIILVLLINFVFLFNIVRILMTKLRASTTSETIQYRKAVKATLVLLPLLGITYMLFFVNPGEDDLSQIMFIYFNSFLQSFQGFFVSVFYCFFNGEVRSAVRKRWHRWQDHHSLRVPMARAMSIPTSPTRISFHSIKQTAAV


Key:
Assay in all cases: cell-based or functional assay
CRF1R = biological target: CRF1R
CRF2R = biological target: T1, CRF2R
[1] = biological target: T2, corticotropin releasing factor 2 …
[2] = biological target: corticotropin releasing factor 1 receptor
Throughout, for CRF1R Emax %: reference of the scale not given here.
Throughout, for CRF1R Emax: reference of the scale not given here.
Throughout, for CRF2R Emax %: reference of the scale not given here.
Throughout, for CRF2R Emax: reference of the scale not given here.

| Binder | CRF1R EC50 (CRF1R) [nM] | CRF1R Emax % (CRF1R) [%] | CRF2R EC50 (CRF2R) [nM] | CRF2R Emax % (CRF2R) [%] | CRF2R EC50 [1] [nM] | CRF2R Emax [1] [%] | CRF1R EC50 [2] [nM] | CRF1R Emax [2] [%] |
| --- | --- | --- | --- | --- | --- | --- | --- | --- |
| NDDPPISIDLPQYLLRNMIEMARIENEREQAGLNAKYLAEV-NH2 [SEQ ID NO 265] | 1000 | 9.3 | 100 | 23.4 |  |  |  |  |
| NDDPPISIDLPLLLLRNMIEMARIENEREQAGLNAKYLAEV-NH2 [SEQ ID NO 268] | 1000 | 14.2 | 100 | 59 |  |  |  |  |
| NDDPPISIDLPFLLLRNMIEMARIENEREQAGLNAKYLAEV-NH2 [SEQ ID NO 260] | 834 | 89.7 | 100 | 89.3 |  |  |  |  |
| ZGPPISIDVPFQLLRKMIEIEKQEKEKQQAANNRLLLDTI (C-terminal amide) [SEQ ID NO 256] | 254 | 100 | 12.6 | 100 |  |  |  |  |
| ZGPPISIDLPITLLRKMIEIEKQEKEKQQAANNRLLLDTI (C-terminal amide) [SEQ ID NO 24] |  |  |  |  | 43.1 | 100 | > 1000 | 18 |
| ZGPPISIDLPAQLLRKMIEIEKQEKEKQQAANNRLLLDTI (C-terminal amide) [SEQ ID NO 211] |  |  |  |  | 59.5 | 100 | 826 | 37 |
| ZGPPISIDLPFQLLRKVIEIEKQEKEKQQAANNARLLDTI (C-terminal amide) [SEQ ID NO 278] | 1000 | 48.7 | 19.6 | 100 |  |  |  |  |
| ZGPPISIDLPFQLLRKMIEIEKQEKEKQQATTNARLLDRV (C-terminal amide) [SEQ ID NO 22] |  |  |  |  | 8.33 | 100 | 1000 | 64 |
| ZGPPISIDLPFQLLRKMIEIEKQEKEKQQATTNARLLARV (C-terminal amide) [SEQ ID NO 23] |  |  |  |  | 10.2 | 100 | 1000 | 82 |
| NDDPPISIDLPFFLLRNMIEMARIENEREQAGLNAKYLAEV-NH2 [SEQ ID NO 264] | 704 | 100 | 100 | 66.3 |  |  |  |  |
| NDDPPISIDLPFQLLRNMIEMARIENEREQAGLNAKYLAEV-NH2 [SEQ ID NO 258] | 1000 | 23.6 | 100 | 49.3 |  |  |  |  |
| NDDPPISIDLPLQLLRNMIEMARIENEREQAGLNAKYLAEV-NH2 [SEQ ID NO 270] | 1000 | 7.85 | 100 | 19.3 |  |  |  |  |
| DNPSLSIDLPYYLLRTLLELARTQSQRERAEQNAIIFASV-NH2 [SEQ ID NO 263] | 802 | 72 | 36.2 | 93 |  |  |  |  |
| NDDPPISIDLPYYLLRNMIEMARIENEREQAGLNAKYLAEV-NH2 [SEQ ID NO 267] | 1000 | 22.8 | 100 | 44.2 |  |  |  |  |
| NDDPPISIDLPFHLLRNMIEMARIENEREQAGLNAKYLAEV-NH2 [SEQ ID NO 262] | 408 | 100 | 100 | 92.2 |  |  |  |  |
| NDDPPISIDLPFYLLRNMIEMARIENEREQAGLNAKYLAEV-NH2 [SEQ ID NO 261] | 274 | 100 | 100 | 95.3 |  |  |  |  |
| NDDPPISIDLPLILLRNMIEMARIENEREQAGLNAKYLAEV-NH2 [SEQ ID NO 269] | 1000 | 44.3 | 100 | 77.3 |  |  |  |  |
| ZGPPISIDLPFQLLRKVIEIEKQEKEKQQAANNAELLAEI (not fully specified; C-terminal amide) [SEQ ID NO 272] | 1000 | 51.1 | 23.3 | 100 |  |  |  |  |
| ZGPPISIDLPFQLLRKVIEIEKQEKEKQQAANNAKLLAKI (not fully specified; C-terminal amide) [SEQ ID NO 274] | 508 | 80.9 | 13.8 | 100 |  |  |  |  |
| ZGPPISIDLPFQLLRKVIEIEKQEKEKQQAANNAHLLAHI (C-terminal amide) [SEQ ID NO 277] | 1000 | 39.9 | 28.2 | 100 |  |  |  |  |
| ZGPPISIDLPFQLLRKVIEIEKQEKEKQQAANNARLLARI (not fully specified; C-terminal amide) [SEQ ID NO 279] | 1000 | 93 | 13.1 | 100 |  |  |  |  |
| ZGPPISIDLPFQLLRKVIEIEKQEKEKQQAANNAQLLAHI (not fully specified; C-terminal amide) [SEQ ID NO 273] | 1000 | 59.3 | 31.3 | 100 |  |  |  |  |
| ZGPPISIDLPFQLLRKVIEIEKQEKEKQQAANNAQLLAQI (not fully specified; C-terminal amide) [SEQ ID NO 276] | 1000 | 75.7 | 22.1 | 100 |  |  |  |  |
| ZGPPISIDLPFQLLRKVIEIEKQEKEKQQAANNANLLANI (not fully specified; C-terminal amide) [SEQ ID NO 275] | 1000 | 38.3 | 46.6 | 100 |  |  |  |  |
| NDDPPISIDLPTYLLRNMIEMARIENEREQAGLNAKYLAEV-NH2 [SEQ ID NO 266] | 1000 | 4.45 | 100 | 19.4 |  |  |  |  |
| NDDPPISIDLPLFLLRNMIEMARIENEREQAGLNAKYLAEV-NH2 [SEQ ID NO 257] | 744 | 83.5 | 100 | 72.6 |  |  |  |  |
| NDDPPISIDLPLHLLRNMIEMARIENEREQAGLNAKYLAEV-NH2 [SEQ ID NO 259] | 820 | 83.6 | 100 | 65 |  |  |  |  |
| NDDPPISIDLPLYLLRNMIEMARIENEREQAGLNAKYLAEV-NH2 [SEQ ID NO 271] | 815 | 80.7 | 48.1 | 69 |  |  |  |  |

— patent publication US20030148958A1 (PROCTER AND GAMBLE, published 2003)
